According to publication PMC5389936 (The Journal of allergy and clinical immunology, 2016):

Target: TSLP (M29-130), longer subunit of the PCSK-generated heterodimeric TSLP (human, UniProt Q969D9 29-130)
Experiment: MALDI-TOF MS with and without DTT

KVTTNKCLEQVSQLQGLWRRFNRPLLKQQ (peptide, UniProt Q969D9 131-159, looked up) [TSLP (131-159), shorter subunit of the truncated thymic stromal lymphopoietin]
binding result: binds
